From PMC7644011

Tested on: rituximab (MabThera, anti-CD20 chimeric mouse/human IgG1) (chimeric mouse/human)
Test: ELASA
Conditions: 80°C 1 min; ELASA on protein A plates, antibody 4 ug/ml; aptamers folded in 20 mM Tris pH 7.6, 100 mM NaCl, 2 mM MgCl2, 5 mM KCl, 1 mM CaCl2, 0.02% Tween 20, then diluted …

Sequence	Kd
ACTTCGGCTAGTTAGGGGGTAGTTTAGATCGTCTCTACAT [C10]	17.6 nM
GGCCATTGTGGACTTCTTTGGGTAATTCAGGGGCTCGATT [C7]	8.8 nM
